B1: Syntaxin-17 (Homo sapiens), P56962 (parent)
chain: MSEDEEKVKLRRLEPAIQKFIKIVIPTDLERLRKHQINIEKYQRCRIWDKLHEEHINAGRTVQQLRSNIREIEKLCLKVRKDDLVLLKRMIDPVKEEASAATAEFLQLHLESVEELKKQFNDEETLLQPPLTRSMTVGGAFHTTEAEASSQSLTQIYALPEIPQDQNAAESWETLEADLIELSQLVTDFSLLVNSQQEKIDSIADHVNSAAVNVEEGTKNLGKAAKYKLAALPVAGALIGGMVGGPIGLLAGFKVAGIAAALGGGVLGFTGGKLIQRKKQKMMEKLTSSCPDLPSQTDKKCS
B2: Syntaxin-17 (Homo sapiens), P56962 (parent)
chain: B1 chain
partner: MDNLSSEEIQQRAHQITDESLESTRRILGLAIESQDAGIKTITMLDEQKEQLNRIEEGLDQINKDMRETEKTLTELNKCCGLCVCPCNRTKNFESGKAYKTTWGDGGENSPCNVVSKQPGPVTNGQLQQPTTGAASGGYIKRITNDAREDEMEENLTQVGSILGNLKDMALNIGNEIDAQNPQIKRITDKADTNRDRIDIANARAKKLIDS

Variants of: B1
Conditions: with acsl3_human ACSL3, O95573
Sequence of acsl3_human ACSL3, O95573 (O95573 whole entry): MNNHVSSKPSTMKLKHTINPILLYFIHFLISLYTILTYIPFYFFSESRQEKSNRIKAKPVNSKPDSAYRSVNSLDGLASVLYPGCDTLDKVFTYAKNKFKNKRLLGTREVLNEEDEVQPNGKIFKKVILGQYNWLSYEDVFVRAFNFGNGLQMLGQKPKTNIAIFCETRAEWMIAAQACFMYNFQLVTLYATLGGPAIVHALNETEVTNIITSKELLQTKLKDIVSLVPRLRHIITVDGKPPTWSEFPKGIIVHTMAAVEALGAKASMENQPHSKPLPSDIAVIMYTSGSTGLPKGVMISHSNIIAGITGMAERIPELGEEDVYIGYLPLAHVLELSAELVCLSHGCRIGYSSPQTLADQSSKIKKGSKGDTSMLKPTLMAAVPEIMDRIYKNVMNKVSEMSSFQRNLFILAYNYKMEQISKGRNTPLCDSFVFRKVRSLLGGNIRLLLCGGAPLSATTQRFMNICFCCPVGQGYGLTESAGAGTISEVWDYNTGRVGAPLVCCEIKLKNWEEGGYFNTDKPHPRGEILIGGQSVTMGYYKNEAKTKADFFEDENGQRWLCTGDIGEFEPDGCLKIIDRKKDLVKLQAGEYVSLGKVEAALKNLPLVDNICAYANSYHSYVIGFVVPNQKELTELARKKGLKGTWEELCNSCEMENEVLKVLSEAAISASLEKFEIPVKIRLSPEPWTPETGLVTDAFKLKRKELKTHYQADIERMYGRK

| Variant | effect of a mutation on the interaction |
| --- | --- |
| MSEDEEKVKLRRLEPAIQKFIKIVIPTDLERLRKHQINIEKYQRCRIWDKLHEEHINAGRTVQQLRSNIREIEKLCLKVRKDDLVLLKRMIDPVKEEASAATAEFLQLHLESVEELKKQFNDEETLLQPPLTRSMTVGGAFHTTEAEASSQSLTQIYALPEIPQDQNAAESWETLEADLIELSQLVTDFSLLVNSQQEKIDSIADHVNSAAVNVEEGTKNLGKAAKYKLAALPVAGALIGGMVGGPIGLLAGFCVAGIAAALGGGVLGFTGGKLIQRKKQKMMEKLTSSCPDLPSQTDKKCS [K254C] | with no effect |

Variants of: B2
Conditions: with snp23_human SNAP23, O00161

| Variant | effect of a mutation on the interaction |
| --- | --- |
| MSEDEEKVKLRRLEPAIQKFIKIVIPTDLERLRKHQINIEKYQRCRIWDKLHEEHINAGRTVQQLRSNIREIEKLCLKVRKDDLVLLKRMIDPVKEEASAATAEFLQLHLESVEELKKQFNDEETLLQPPLTRSMTVGGAFHTTEAEASSQSLTQIYALPEIPQDQNAAESWETLEADLIELSQLVTDFSLLVNSQQEKIDSIADHVNSAAVNVEEGTKNLGKAAKYKLAALPVAGALIGGMVGGPIGLLAGFCVAGIAAALGGGVLGFTGGKLIQRKKQKMMEKLTSSCPDLPSQTDKKCS [K254C] | decreasing interaction strength |

From IntAct's records for PubMed 29549094
